System: Escherichia coli TOP10
Assay: shrunken log2 fold change of peptide-encoding DNA abundance (4.5 h post-induction vs induction); higher = less antimicrobial activity (less host growth inhibition)
Details: time post-induction: 4.5 h; library: site-saturation at positions 5, 18, 19, 20
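Further: peptides expressed intracellularly from a pBAD plasmid library in pooled LB shake-flask culture, induced with 0.3% L-arabinose, DNA abundance read by NGS, three biological replicates, DESeq2 with apeglm shrinkage.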

Sequence | shrunken log2 fold change
RRIRKRPPRLPRPRPRPQCFPRP | -0.0263
RRIRDRPPRLPRPRPRPPWWPRP | 0.461
RRIRLRPPRLPRPRPRPRCQPRP | 0.72
RRIRYRPPRLPRPRPRPKQPPRP | 0.102
RRIRVRPPRLPRPRPRPSMVPRP | -0.475
RRIRGRPPRLPRPRPRPYYEPRP | 0.0278
RRIRSRPPRLPRPRPRPECEPRP | -0.0828
RRIRSRPPRLPRPRPRPHRTPRP | -0.0768
RRIRKRPPRLPRPRPRPHWRPRP | 0.3
RRIRGRPPRLPRPRPRPCKTPRP | 0.0121
RRIRRRPPRLPRPRPRPWWLPRP | -0.00877
RRIRPRPPRLPRPRPRPIYAPRP | -0.0839
RRIRERPPRLPRPRPRPVMHPRP | -0.0979
RRIRTRPPRLPRPRPRPGTHPRP | -0.0792
RRIRVRPPRLPRPRPRPETIPRP | 0.0608
RRIRCRPPRLPRPRPRPKMFPRP | -0.265
RRIRRRPPRLPRPRPRPWNPPRP | -0.212
RRIRARPPRLPRPRPRPHHTPRP | -0.364
RRIRIRPPRLPRPRPRPRVRPRP | 0.112
RRIRRRPPRLPRPRPRPCGIPRP | 0.506
RRIRQRPPRLPRPRPRPSVQPRP | -0.0622
RRIRGRPPRLPRPRPRPPHSPRP | 0.568
RRIRVRPPRLPRPRPRPGCHPRP | 0.363
RRIRGRPPRLPRPRPRPGTMPRP | 0.0523
RRIRMRPPRLPRPRPRPNCPPRP | -0.0204

Sequence | shrunken log2 fold change
RRIRRRPPRLPRPRPRPERPPRP | 0.991
RRIRLRPPRLPRPRPRPMQLPRP | -0.21
RRIRDRPPRLPRPRPRPKFLPRP | -0.241
RRIRWRPPRLPRPRPRPYMSPRP | -0.212
RRIRQRPPRLPRPRPRPWMKPRP | 0.0212
RRIRRRPPRLPRPRPRPEGVPRP | 0.874
RRIRIRPPRLPRPRPRPDNMPRP | -0.25
RRIRHRPPRLPRPRPRPQMFPRP | -0.0824
RRIRPRPPRLPRPRPRPYRRPRP | -0.198
RRIRGRPPRLPRPRPRPFWDPRP | 0.322
RRIRNRPPRLPRPRPRPSKLPRP | -0.582
RRIRLRPPRLPRPRPRPYAGPRP | 0.0235
RRIRYRPPRLPRPRPRPFNTPRP | -0.468
RRIRDRPPRLPRPRPRPHFPPRP | -0.0339
RRIRWRPPRLPRPRPRPDKAPRP | -0.00149
RRIRTRPPRLPRPRPRPLHFPRP | -0.189
RRIRNRPPRLPRPRPRPYPWPRP | -0.0963
RRIRHRPPRLPRPRPRPGDWPRP | -0.133
RRIRPRPPRLPRPRPRPWYDPRP | -0.00228
RRIRLRPPRLPRPRPRPDQHPRP | -0.0962
RRIRIRPPRLPRPRPRPCTYPRP | -0.0592
RRIRMRPPRLPRPRPRPYHEPRP | -0.391
RRIRHRPPRLPRPRPRPAREPRP | 0.256
RRIRRRPPRLPRPRPRPPQSPRP | 0.846
RRIRFRPPRLPRPRPRPKKNPRP | 0.0769

Sequence | shrunken log2 fold change
RRIRVRPPRLPRPRPRPANMPRP | 0.00908
RRIRLRPPRLPRPRPRPKSLPRP | -0.467
RRIRERPPRLPRPRPRPADMPRP | -0.0494
RRIRKRPPRLPRPRPRPYHFPRP | -0.031
RRIRHRPPRLPRPRPRPSSSPRP | -0.258
RRIRARPPRLPRPRPRPYNWPRP | -0.481
RRIRNRPPRLPRPRPRPVLKPRP | 0.0485
RRIRNRPPRLPRPRPRPWDQPRP | 0.0603
RRIRLRPPRLPRPRPRPMNNPRP | -0.604
RRIRRRPPRLPRPRPRPNPSPRP | 0.215
RRIRRRPPRLPRPRPRPQDFPRP | -0.078
RRIRIRPPRLPRPRPRPWDHPRP | 0.0393
RRIRERPPRLPRPRPRPYACPRP | -0.0634
RRIRERPPRLPRPRPRPPKAPRP | 0.312
RRIRDRPPRLPRPRPRPHHVPRP | -0.145
RRIRWRPPRLPRPRPRPSDTPRP | 0.0558
RRIRPRPPRLPRPRPRPTEQPRP | 0.307
RRIRDRPPRLPRPRPRPHGLPRP | -0.0404
RRIRPRPPRLPRPRPRPYIYPRP | -0.518
RRIRHRPPRLPRPRPRPNISPRP | -0.319
RRIRFRPPRLPRPRPRPTYQPRP | -0.393
RRIRHRPPRLPRPRPRPKFSPRP | -0.304
RRIRPRPPRLPRPRPRPNGMPRP | 0.171
RRIRHRPPRLPRPRPRPPKKPRP | -0.0115
RRIRLRPPRLPRPRPRPMNSPRP | -0.406
